Results from the supplement of paper PMC10567573.
± gives the standard deviation.

Assay: protein stability index of a GFP-peptide fusion (GPS, HEK-293T) (PSI 1-6); higher = more stable
[1] = treatment: DMSO, c terminus: a fixed tail appended
[2] = treatment: MLN4924 1 uM, 8 h, c terminus: a fixed tail appended
[3] = treatment: DMSO, c terminus: native
[4] = treatment: MLN4924 1 uM, 8 h, c terminus: native
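Note: 24-mer peptide tiles fused after GFP, lentivirally expressed, FACS-sorted into six equal bins by GFP/DsRed ratio, decoded by Illumina sequencing, PSI is the read-weighted mean bin number.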

Sequence | protein stability index [1] | protein stability index [2] | protein stability index [3] | protein stability index [4]
GRRQRKSEKRRDPPNGPNLPMATV [WASL] | 4.7 ± 0.37 | 4.47 ± 0.13 | – | –
PDGGGPWLEDEPGRGAQGENERVR [ZSWIM9] | 5.41 ± 0.43 | 5.5 ± 0.3 | – | –
SHECKPEGYEFCHNRKVLTIFSAS [PPEF2] | 2.73 ± 0.38 | 2.76 ± 0.17 | – | –
NEKQLHTLRTCYAANPRPDALMKE [ISL2] | 4.05 ± 0.43 | 4.15 ± 0.53 | – | –
EPELSPAYLISEAMRRSRMSLYC [GFOD1] | – | – | 2.3 ± 0.81 | 2.27 ± 0.3
RWNPWSTEVPYATFTEHPMKYTSE [TPRG1] | 3 ± 0.6 | 2.74 ± 0.24 | – | –
SELSEHLRDPLTSLSHTELEAAEV [FCHSD1] | 5.22 ± 0.16 | 5.32 ± 0.13 | – | –
AVYFAEADDPTSGFSSIPDAFWWA [KCNA3] | 2 ± 0.16 | 2.12 ± 0.24 | – | –
REEERPLPRRDFQRQVWLLFEYPE [KCNA3] | 2.64 ± 0.43 | 2.67 ± 0.37 | – | –
VLMDTQGAFDSQSTVKDCATIFAL [ATL3] | 2.48 ± 0.35 | 2.55 ± 0.21 | – | –
IQKAYDELRLQSEAFKKHSLDLLS [CCDC89] | 2.68 ± 0.31 | 2.91 ± 0.23 | – | –
SDLGLLRLCTWLLALSPDLSLSNA [FANCE] | 3.08 ± 0.33 | 3.17 ± 0.47 | – | –
RPRTRKVKSVSPQGNSVDRMAAPR [NCF4] | 4.85 ± 0.15 | 4.795 ± 0.046 | – | –
NPNFEVAESDYSNNIMKCRSRYDG [LOXL2] | 4.42 ± 0.24 | 4.42 ± 0.33 | – | –
GVWHQMGTDGYMPRELASMSLVLH [KLHDC10] | 2.08 ± 0.21 | 2.06 ± 0.27 | – | –
LHAWEMKPYAVMVFQTEQKNLFRL [N4BP2L1] | 2.44 ± 0.61 | 2.41 ± 0.41 | – | –
EVLAQPQGALAPPNCESDSKTGV [DNAAF3] | – | – | 5.34 ± 0.27 | 5.3 ± 0.39
ASASKFPSSGPVTPQPTALTFAKS [AUP1] | 4.33 ± 0.17 | 4.36 ± 0.38 | – | –
EPFGKERDAAIKKLATEAGVEVIV [CRY1] | 3.59 ± 0.22 | 3.48 ± 0.28 | – | –
DQLTQIMRTGQNTWESKNILAVSF [PCMTD1] | 2.21 ± 0.22 | 1.92 ± 0.36 | – | –
NVEMDAAPGVDLSRILNEMRDQYE [KRT16] | 4.34 ± 0.18 | 4.46 ± 0.37 | – | –
PSLPAAGEQDCCGERVVINISGLR [KCNA3] | 3.79 ± 0.36 | 3.76 ± 0.29 | – | –

Sequence | protein stability index [1] | protein stability index [2] | protein stability index [3] | protein stability index [4]
EFMLLPANQLIDIISSDELNVRSE [KLHL20] | 3.71 ± 0.37 | 3.38 ± 0.44 | – | –
QVQSLITNVESQLAEIRCDLERQN [KRT34] | 3.43 ± 0.21 | 3.66 ± 0.33 | – | –
LFSNSDHQRDGTLGALHTSSKPTA [SASS6] | 4.36 ± 0.27 | 4.51 ± 0.065 | – | –
MDGQTDFWRDWEDYAHGFGNISGE [TNXB] | 3.94 ± 0.34 | 4.34 ± 0.58 | – | –
TEFTLGDDKHYGGFTNKQLQSGQE [PTPRD] | 4.91 ± 0.2 | 4.77 ± 0.13 | – | –
RLCLVCGDIASGYHYGVASCEACK [ESRRG] | 4.15 ± 0.12 | 4.21 ± 0.18 | – | –
LGNFKDDLLNVCMRHVEKMCKADL [TRIM29] | 2.36 ± 0.13 | 2.47 ± 0.19 | – | –
IKAWMDRYEEANNNQYSEGVQREA [KMT2E] | 3.77 ± 0.14 | 4.05 ± 0.28 | – | –
ERRPVAQSTDGARGKRGYSRGLHA [SPSB2] | 4.52 ± 0.11 | 4.58 ± 0.13 | – | –
RQDADAWTLYKILDSCKQLTLAQG [SMG5] | 2.29 ± 0.26 | 2.32 ± 0.083 | – | –
AAVPDEIPPLEGDEDASRMEEVD [HSP90AB1] | – | – | 5.62 ± 0.27 | 5.68 ± 0.21
YCHPDSETDEDEEEGDEQQRLLNT [GMCL1] | 5.33 ± 0.37 | 5.2 ± 0.36 | – | –
TLQGLYLVYHPVQLSTPHAVGVLL [DHCR7] | 3.18 ± 0.49 | 2.97 ± 0.5 | – | –
TLRTCYAANPRPDALMKEQLVEMT [ISL2] | 3.53 ± 0.22 | 3.52 ± 0.28 | – | –
EPLEPEVKYVGNMHGNEALGRELM [CPN1] | 4.63 ± 0.088 | 4.82 ± 0.18 | – | –
MNMLWSRMLKDNKKNWRRVYKSLL [CLINT1] | 2.62 ± 0.74 | 2.58 ± 0.61 | – | –
SLGASPTVAGIVGSSYGILQLFSS [MFSD9] | 2.08 ± 0.35 | 2.17 ± 0.47 | – | –
KGNPEEEDVDTSQVLYEWEQGFSQ [CTNNB1] | 5.11 ± 0.25 | 5.25 ± 0.28 | – | –
VKLLVDLELSYGFENGQKAAVVHH [TOR1AIP2] | 2.22 ± 0.26 | 2.3 ± 0.12 | – | –
LPEAPPKKFLTLGSKFRYSGRTQA [EPB41L3] | 3 ± 0.28 | 3.18 ± 0.39 | – | –
HLQLLGAVCMFLASKLKETSPLTA [CCND2] | 2.48 ± 0.34 | 2.36 ± 0.25 | – | –
LRGPRERAPSERSGPAASEHSHRS [DVL3] | 5.14 ± 0.3 | 5.34 ± 0.057 | – | –
